In paper PMC9954413:

What was measured:
UbcH5B (Homo sapiens) = UbcH5B (Homo sapiens) (UniProt P62837); experiment: ITC; details: cited from earlier work
[1] = target: Arkadia (RNF111) LONG, residues 876-994 (Ark LONG, 119 aa) (human) (UniProt Q6ZNA4); experiment: ITC; 1-3 mM E2 in the syringe injected (2 uL, 15-19 injections) into 100-300 uM Arkadia polypeptide in the cell; 25 °C; 50 mM KH2PO4, 50 mM K2HPO4 pH 7; single-site model
[2] = target: Arkadia LONG R983K (human) (UniProt Q6ZNA4); experiment: as above
Sequence of Arkadia LONG R983K (human) (Q6ZNA4 876-994 R983K): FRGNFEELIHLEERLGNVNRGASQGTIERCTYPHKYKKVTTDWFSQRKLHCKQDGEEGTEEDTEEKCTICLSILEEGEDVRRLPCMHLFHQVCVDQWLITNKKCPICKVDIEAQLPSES

[3] = target: Arkadia LONG R983A (human) (UniProt Q6ZNA4); experiment: as above
Sequence of Arkadia LONG R983A (human) (Q6ZNA4 876-994 R983A): as the sequence (Q6ZNA4 876-994 R983K) above, with K108A counted along it

[4] = target: Arkadia (RNF111) LONG, residues 876-994 (Ark LONG, 119 aa) (human) (UniProt Q6ZNA4)

Sequence of Arkadia (RNF111) LONG, residues 876-994 (Ark LONG, 119 aa) (human) (Q6ZNA4 876-994): as the sequence (Q6ZNA4 876-994 R983K) above, with K108R counted along it
Sequence of UbcH5B (UBE2D2) (P62837 whole entry): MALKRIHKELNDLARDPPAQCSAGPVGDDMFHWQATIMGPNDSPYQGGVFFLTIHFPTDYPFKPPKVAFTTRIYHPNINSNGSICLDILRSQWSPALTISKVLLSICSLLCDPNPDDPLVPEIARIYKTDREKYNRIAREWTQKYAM
Sequence of Arkadia RING RING (Q6ZNA4 939-986): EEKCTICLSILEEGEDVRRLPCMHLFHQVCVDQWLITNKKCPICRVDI
Sequence of UbcH5B (Homo sapiens) (P62837 whole entry, the tested form may be a part): as the sequence (P62837 whole entry) above

| dH [1] | stoichiometry N [1] | dH [2] | stoichiometry N [2] | dH [3] | stoichiometry N [3] | in vitro auto-ubiquitylation of Ark LONG: time until polyubiquitylation is achieved [4] | Substance | Kd (UbcH5B (Homo sapiens)) |
| --- | --- | --- | --- | --- | --- | --- | --- | --- |
| – | – | – | – | – | – | – | Arkadia RING RING (from UniProt Q6ZNA4) | 32 µM |
| -4.7 kcal/mol | 0.6 | -3.6 kcal/mol | 0.5 | -5.8 kcal/mol | 0.7 | 5 min | UbcH5B (UBE2D2) (from UniProt P62837 1-147) (enzyme) | – |
